{"source": "paper PMC5714204", "binders": {"B1": {"name": "Cy3-poly(A)30 ssRNA (ssRNA)", "RNA": "AAAAAAAAAAAAAAAAAAAAAAAAAAAAAA"}}, "experiment_in_all_cases": "fluorescence polarization", "key": {"RNase R ΔHTH-K": {"target": "T1, RNase R ΔHTH-K (Escherichia coli BL21(DE3), UniProt P21499 87-725)", "T1 sequence": "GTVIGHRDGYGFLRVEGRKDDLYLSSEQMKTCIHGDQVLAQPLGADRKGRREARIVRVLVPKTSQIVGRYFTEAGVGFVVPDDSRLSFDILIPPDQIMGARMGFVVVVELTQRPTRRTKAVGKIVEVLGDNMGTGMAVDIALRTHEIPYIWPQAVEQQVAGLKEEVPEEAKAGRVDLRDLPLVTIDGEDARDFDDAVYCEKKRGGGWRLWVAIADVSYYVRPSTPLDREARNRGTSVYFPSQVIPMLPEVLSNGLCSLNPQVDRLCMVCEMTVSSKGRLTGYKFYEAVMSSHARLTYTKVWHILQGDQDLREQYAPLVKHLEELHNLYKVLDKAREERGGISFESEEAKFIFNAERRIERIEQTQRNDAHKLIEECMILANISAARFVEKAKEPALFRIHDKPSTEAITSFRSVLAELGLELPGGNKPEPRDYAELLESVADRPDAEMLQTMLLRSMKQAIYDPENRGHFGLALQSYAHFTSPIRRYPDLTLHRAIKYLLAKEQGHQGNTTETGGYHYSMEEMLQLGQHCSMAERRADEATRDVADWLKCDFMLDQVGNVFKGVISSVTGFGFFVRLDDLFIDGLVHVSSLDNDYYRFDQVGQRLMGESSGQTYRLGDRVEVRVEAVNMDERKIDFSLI"}, "RNase R 1H": {"target": "T2, RNase R 1H (Escherichia coli BL21(DE3), UniProt P21499 1-523+=AQPTGFLDSRIRRFQS+545-813, internal_change)", "T2 sequence": "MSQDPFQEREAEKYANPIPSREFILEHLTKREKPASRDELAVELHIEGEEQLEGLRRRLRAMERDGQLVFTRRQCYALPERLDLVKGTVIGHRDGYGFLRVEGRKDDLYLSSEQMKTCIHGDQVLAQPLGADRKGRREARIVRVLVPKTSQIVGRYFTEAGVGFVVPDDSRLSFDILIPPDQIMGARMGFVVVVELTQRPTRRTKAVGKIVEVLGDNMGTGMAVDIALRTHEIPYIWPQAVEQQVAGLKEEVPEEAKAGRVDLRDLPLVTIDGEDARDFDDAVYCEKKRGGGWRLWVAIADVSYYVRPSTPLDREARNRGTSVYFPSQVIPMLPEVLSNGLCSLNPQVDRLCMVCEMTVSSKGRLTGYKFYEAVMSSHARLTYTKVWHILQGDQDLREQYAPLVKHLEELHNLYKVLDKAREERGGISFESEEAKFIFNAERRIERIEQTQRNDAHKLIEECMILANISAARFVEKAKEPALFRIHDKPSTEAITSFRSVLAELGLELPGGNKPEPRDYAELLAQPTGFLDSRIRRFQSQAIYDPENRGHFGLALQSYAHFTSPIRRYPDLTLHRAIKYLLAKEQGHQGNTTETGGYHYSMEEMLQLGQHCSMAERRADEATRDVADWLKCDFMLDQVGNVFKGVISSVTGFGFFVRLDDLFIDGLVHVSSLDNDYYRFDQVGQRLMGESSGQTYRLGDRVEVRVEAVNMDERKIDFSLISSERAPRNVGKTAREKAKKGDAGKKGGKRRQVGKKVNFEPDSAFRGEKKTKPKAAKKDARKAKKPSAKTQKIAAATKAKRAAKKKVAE"}, "RNase R (full-length)": {"target": "T3, RNase R (full-length) (Escherichia coli BL21(DE3), UniProt P21499 1-813)", "T3 sequence": "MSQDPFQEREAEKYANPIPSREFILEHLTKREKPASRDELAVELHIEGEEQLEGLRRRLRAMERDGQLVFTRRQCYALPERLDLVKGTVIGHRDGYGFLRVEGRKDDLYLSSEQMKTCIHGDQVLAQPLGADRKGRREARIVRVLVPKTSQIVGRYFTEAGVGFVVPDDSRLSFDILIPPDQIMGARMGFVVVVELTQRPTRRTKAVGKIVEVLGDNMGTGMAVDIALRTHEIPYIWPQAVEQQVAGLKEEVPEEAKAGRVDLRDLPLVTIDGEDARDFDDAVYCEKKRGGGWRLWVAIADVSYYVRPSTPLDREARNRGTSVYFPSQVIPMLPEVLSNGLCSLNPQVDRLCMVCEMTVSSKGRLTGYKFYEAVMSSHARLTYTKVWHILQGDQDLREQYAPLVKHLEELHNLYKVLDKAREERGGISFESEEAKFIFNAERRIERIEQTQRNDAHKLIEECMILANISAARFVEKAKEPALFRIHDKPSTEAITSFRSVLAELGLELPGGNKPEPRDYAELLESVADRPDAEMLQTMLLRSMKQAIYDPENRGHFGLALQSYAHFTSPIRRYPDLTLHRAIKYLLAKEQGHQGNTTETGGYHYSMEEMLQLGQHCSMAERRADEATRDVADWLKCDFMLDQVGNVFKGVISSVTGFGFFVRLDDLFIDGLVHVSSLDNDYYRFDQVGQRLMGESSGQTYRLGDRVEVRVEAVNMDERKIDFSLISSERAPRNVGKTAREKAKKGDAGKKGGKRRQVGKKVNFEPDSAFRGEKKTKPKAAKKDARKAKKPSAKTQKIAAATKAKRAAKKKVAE"}, "RNase R Δ3H": {"target": "T4, RNase R Δ3H (Escherichia coli BL21(DE3), UniProt P21499 1-813, del487-545)", "T4 sequence": "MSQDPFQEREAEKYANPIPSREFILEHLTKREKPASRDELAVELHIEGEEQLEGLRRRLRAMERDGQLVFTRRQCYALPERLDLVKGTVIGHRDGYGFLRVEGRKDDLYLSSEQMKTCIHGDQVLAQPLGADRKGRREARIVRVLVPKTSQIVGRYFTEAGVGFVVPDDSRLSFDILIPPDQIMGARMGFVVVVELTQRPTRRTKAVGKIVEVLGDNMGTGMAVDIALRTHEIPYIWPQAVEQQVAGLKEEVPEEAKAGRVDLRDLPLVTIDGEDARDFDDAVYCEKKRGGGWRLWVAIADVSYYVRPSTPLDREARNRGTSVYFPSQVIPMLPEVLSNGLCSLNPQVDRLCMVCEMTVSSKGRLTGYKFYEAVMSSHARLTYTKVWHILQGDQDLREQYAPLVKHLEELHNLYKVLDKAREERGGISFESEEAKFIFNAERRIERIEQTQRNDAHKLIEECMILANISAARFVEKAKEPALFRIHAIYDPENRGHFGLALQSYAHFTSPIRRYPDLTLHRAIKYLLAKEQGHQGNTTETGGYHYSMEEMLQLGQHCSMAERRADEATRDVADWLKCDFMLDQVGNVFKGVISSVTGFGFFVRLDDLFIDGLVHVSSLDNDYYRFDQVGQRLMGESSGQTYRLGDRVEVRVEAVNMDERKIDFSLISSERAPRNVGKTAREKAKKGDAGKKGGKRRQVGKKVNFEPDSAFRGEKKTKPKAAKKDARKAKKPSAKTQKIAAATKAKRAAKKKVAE"}}}
{"binder": "B1", "values": [{"measurement": "Kd", "setting": "RNase R ΔHTH-K", "result": "8.6 ± 1", "unit": "nM"}, {"measurement": "Kd", "setting": "RNase R 1H", "result": "9.9 ± 1", "unit": "nM"}, {"measurement": "Kd", "setting": "RNase R (full-length)", "result": "11.2 ± 1.2", "unit": "nM"}, {"measurement": "Kd", "setting": "RNase R Δ3H", "result": "23.8 ± 2.6", "unit": "nM"}]}
